Sequences and labels used below:
B1: OR4K15 (parent)
chain: GUUAACGGUCAUAGGCCAUGGAAACUAGGAGCACCAUUUCGCUGCCAGUGAAGAAAUGAACAAAGAAAAUCUGGGCCAGGCAGGCAUCAAAAGAAAUAGUCUUGCGCUCAACCAGAAAGUCUGUAAUCAUUUUAAGGGUA

In the series the parent is B1. Nature of the series: self-cleavage, relative activity (ratio to wild type); higher = more cleavage; in vitro, sequencing; the parent is a self-cleaving ribozyme.
Consider GUUAACGGUCUUAGGCCAUGGAGACUAGGAGCACCAUUUCGCUGCCAGUGAAGAAAUGAACAAAGAAAAUCUGGGCCAGGCAGGCAUCAAAAGAAAUAGUCUUGCGCUCAACCAGAAAGUCUGUAAUCAUUUUAAGGGUA, for which the self-cleavage is 0.87.

Regarding GUUAACGGUCUUAGGCCAUGGAAACUAGGAGCACCAUUUCGCUGCCAGUGAAGUAAUGAACAAAGAAAAUCUGGGCCAGGCAGGCAUCAAAAGAAAUAGUCUUGCGCUCAACCAGAAAGUCUGUAAUCAUUUUAAGGGUA, the self-cleavage is 2.18.

With GUUAACGGUCGAAGGCCAUGGAAACUAGGAGCACCAUUUCGCUGCCAGUGAAGAAAUGAACAAAGAAAAUCUGGGCCAGGCAGGCAUCAAAAGAAAUAGUCUUGCGCUCAACCAGAAAGUCUGUAAUCAUUUUAAGGGUA, the self-cleavage turned out to be 1.21.

As to GUUAACGGUCGUAGGCCAUGGAAACUAGGAGCACCAUUUCGCUGCCAGUGAAGAAAUGAACAAAGAAAAUCUGGGCCAGGCAGGCAUCAAAAGAAAUAGUCCUGCGCUCAACCAGAAAGUCUGUAAUCAUUUUAAGGGUA, the self-cleavage turned out to be 1.41.

With GUUAACGGUCUUAGGCCAUGGAAACUAGGAGCACCAUUUCGCUGCCAGUGCAGAAAUGAACAAAGAAAAUCUGGGCCAGGCAGGCAUCAAAAGAAAUAGUCUUGCGCUCAACCAGAAAGUCUGUAAUCAUUUUAAGGGUA, the self-cleavage was found to be 1.16.

For GUUAACGGUCUUAGGCCAUGGAAACUAGGAGCACCAUUUCGCUGCCAGUGUAGAAAUGAACAAAGAAAAUCUGGGCCAGGCAGGCAUCAAAAGAAAUAGUCUUGCGCUCAACCAGAAAGUCUGUAAUCAUUUUAAGGGUA, the self-cleavage amounted to 0.87.

On to GUUAACGGUCGUAGGCCAUGGAAACUAGGAGCACCAUUUCGCUGCCAGUGAAGAAAUGAACAAAGAAAAUCUGGGCCAGGCAGGCAUCAAAAGAAAUAGUCUUGCGCUCAACCAGAAAGUCUGUAAACAUUUUAAGGGUA, for which the self-cleavage was determined as 1.17.

With GUUAACGGUCGUAGGCCAUGGAAACUAGGAGCACCAUUUCGCUGCCAGUGAAGAAAUGAACAAAGAAAAUCUGGGCCAGGCAGGCAUCAAAAGAAAUAGUCUUGCGCUCAACCAGAAAGCCUGUAAUCAUUUUAAGGGUA, the self-cleavage came to 0.35.

Turning to GUUAACGGUCGUAGGCCAUGGAAACUAGGAGCACCAUUUCGCUGCCAGUGAAGAAAUGAACAAAGAAAAUCUGGGCCAGGCAGGCAUCAAAAGAAACAGUCUUGCGCUCAACCAGAAAGUCUGUAAUCAUUUUAAGGGUA, the self-cleavage was 1.42.

As for GUUAACGGUCGUAGGCCAUGGAAACUAGGAGCACCAUUUCGCUGCCAGUGAAGAAAUGAACAAAGAAAAUCUGGGCCAGGCAGGCAUCAAAAGAAAUAGUCUUGCGCUCAACCAGAAAGUCUGCAAUCAUUUUAAGGGUA, the self-cleavage was found to be 0.34.

As to GUUAACGGUCGUAGGCCAUGGAAACUAGGAGCACCAUUUCGCUGCCAGUGAAGAAAUGAACAAAGAAAAUCUGGGCCAGGCAGGCAUCAAAAGAAAUAGUCUUGCGCUCAACCAGAAAGUCUGAAAUCAUUUUAAGGGUA, the self-cleavage was 0.66.

As to GUUAACGGUCGUAGGCCAUGGAAACUAGGAGCACCAUUUCGCUGCCAGUGAAGAAAUGAACAAAGAAAACCUGGGCCAGGCAGGCAUCAAAAGAAAUAGUCUUGCGCUCAACCAGAAAGUCUGUAAUCAUUUUAAGGGUA, the self-cleavage was determined as 0.76.

Turning to GUUAACGGUCGUAGGCCAUGGAAACUAGGAGCACCAUUUCGCUGCCAGUGAAGAAAUGAACAAAGAAAAACUGGGCCAGGCAGGCAUCAAAAGAAAUAGUCUUGCGCUCAACCAGAAAGUCUGUAAUCAUUUUAAGGGUA, the self-cleavage came to 0.92.

Regarding GUUAACGGUCGUAGGCCAUGGAAACUAGGAGCACCAUUUCGCUGCCAGUGAAGAAAUGAACAAAGAAAAUCUGGGCCAGGCAGGCAUCAAAAGAAAUAGUCUUGCGCUCAACCAGAAAGUCUGUAAUCAUCUUAAGGGUA, the self-cleavage was 0.79.

GUUAACGGUCGUAGGCCAUGGAAACUAGGAGCACCAUUUCGCUGCCAGUGAAGAAAUGAACAAAGAAAAUCUGGGCCAGGCAGGCAUCAAAAGAAAUAGUCUCGCGCUCAACCAGAAAGUCUGUAAUCAUUUUAAGGGUA: the self-cleavage came out at 0.95.

With GUUAACGGUCGUAGGCCAUGGAAACUAGGAGCACCAUCUCGCUGCCAGUGAAGAAAUGAACAAAGAAAAUCUGGGCCAGGCAGGCAUCAAAAGAAAUAGUCUUGCGCUCAACCAGAAAGUCUGUAAUCAUUUUAAGGGUA, the self-cleavage is 0.65.

For GUUAACGGUCGUAGGCCAUGGAAACUAGGAGCACCAUAUCGCUGCCAGUGAAGAAAUGAACAAAGAAAAUCUGGGCCAGGCAGGCAUCAAAAGAAAUAGUCUUGCGCUCAACCAGAAAGUCUGUAAUCAUUUUAAGGGUA, the self-cleavage is 0.86.

With GUUAACGGUCUUAGGCCGUGGAAACUAGGAGCACCAUUUCGCUGCCAGUGAAGAAAUGAACAAAGAAAAUCUGGGCCAGGCAGGCAUCAAAAGAAAUAGUCUUGCGCUCAACCAGAAAGUCUGUAAUCAUUUUAAGGGUA, the self-cleavage came out at 1.38.

For GUUAACGGUCUUAGGCCAUGGAAACUAGGAGCACCAUUUCGCUGCCAGUGAGGAAAUGAACAAAGAAAAUCUGGGCCAGGCAGGCAUCAAAAGAAAUAGUCUUGCGCUCAACCAGAAAGUCUGUAAUCAUUUUAAGGGUA, the self-cleavage was 1.25.

For GUUAACGGUCUUAGGCCAUGGAAACUAGGAGCACCAUUUCGCUGCCAGUGAUGAAAUGAACAAAGAAAAUCUGGGCCAGGCAGGCAUCAAAAGAAAUAGUCUUGCGCUCAACCAGAAAGUCUGUAAUCAUUUUAAGGGUA, the self-cleavage was determined as 1.54.

Regarding GUUAACGGUCUUAGGCCAUGGAAACUAGGAGCACCAUUUCGCUGCCAGUGAAGAAAUGAACAAAGGAAAUCUGGGCCAGGCAGGCAUCAAAAGAAAUAGUCUUGCGCUCAACCAGAAAGUCUGUAAUCAUUUUAAGGGUA, the self-cleavage was determined as 2.37.

Regarding GUUAACGGUCUUAGGCCAUGGAAACUAGGAGCACCAUUUCGCUGCCAGUGAAGAAAUGAACAAAGAAAAUCUGGGCCAGGCAGGCAUCAAAAGAAAUAGUCUUGCGCUCAACCAGAAAGUCUGUAAUCAUUUUAAGGGUA, the self-cleavage worked out at 0.87.

Regarding GUUAACGGUCUUAGGCCAUGGAAACUAGGAGCACCAUUUCGCUGCCAGUGAAGAAGUGAACAAAGAAAAUCUGGGCCAGGCAGGCAUCAAAAGAAAUAGUCUUGCGCUCAACCAGAAAGUCUGUAAUCAUUUUAAGGGUA, the self-cleavage was determined as 1.1.

For the variant GUUAACGGUCGUAGGCCAUGGAAACUAGGAGCACCAUUUCGCUGCCAGUGAAGAAAUGAACAAAGAAAAUCUGGGCCAGGCAGGCAUCAAAAGAAAUAGUCUUGCGCUCAACCAGAAAGUCCGUAAUCAUUUUAAGGGUA, the self-cleavage is 1.

Regarding GUUAACGGUCUUAGGCCAUGGAAACUAGGAGCACCAUUUCGCUGCCAGUGAAGAAAUGAACAGAGAAAAUCUGGGCCAGGCAGGCAUCAAAAGAAAUAGUCUUGCGCUCAACCAGAAAGUCUGUAAUCAUUUUAAGGGUA, the self-cleavage was determined as 0.86.

For GUUAACGGUCGUAGGCCAUGGAAACUAGGAGCACCAUUUCGCUGCCAGUGAAGAAAUGAACAAAGAAAAUCUGGGCCAGGCAGGCAUCAAAAGAAAUAGUCUUGCGCUCAACCAGAAAGUCUGUAAUCACUUUAAGGGUA, the self-cleavage is 0.53.

Turning to GUUAACGGUCGUAGGCCAUGGAAACUAGGAGCACCAUUUCGCUGCCAGUGAAGAAAUGAACAAAGAAAAUCUGGGCCAGGCAGGCAACAAAAGAAAUAGUCUUGCGCUCAACCAGAAAGUCUGUAAUCAUUUUAAGGGUA, the self-cleavage turned out to be 1.05.

As for GUUAACGGUCGUAGGCCAUGGAAACUAGGAGCACCAUUUCGCUGCCAGCGAAGAAAUGAACAAAGAAAAUCUGGGCCAGGCAGGCAUCAAAAGAAAUAGUCUUGCGCUCAACCAGAAAGUCUGUAAUCAUUUUAAGGGUA, the self-cleavage turned out to be 0.39.

In the case of GUUAACGGUCGUAGGCCAUGGAAACUAGGAGCACCAUUUCGCUGCCAGUGAAGAAAUGAACAAAGAAAAUCAGGGCCAGGCAGGCAUCAAAAGAAAUAGUCUUGCGCUCAACCAGAAAGUCUGUAAUCAUUUUAAGGGUA, the self-cleavage was 0.38.

Consider GUUAACGGUCUUAGGCCAUGGAAACUAGGAGCACCAUUUCGCUGCCAGUGAAGAAAUGAACAAAGAAAAUCUGGGCCAGGCAGGCAUCUAAAGAAAUAGUCUUGCGCUCAACCAGAAAGUCUGUAAUCAUUUUAAGGGUA, for which the self-cleavage was 1.59.

Regarding GUUAACGGUCUUAGGCCAUGGAAACUAGGAGCACCAUUUCGCUGCCAGUGAAGAAAUGAACAAAGAAAAUCUGGGCCAGGCAGGCAUCGAAAGAAAUAGUCUUGCGCUCAACCAGAAAGUCUGUAAUCAUUUUAAGGGUA, the self-cleavage is 1.21.

Turning to GUUAACGGUCUUAGGCCAUGGAAACUAGGAGCACCAUUUCGCUGCCAGUGAAGAGAUGAACAAAGAAAAUCUGGGCCAGGCAGGCAUCAAAAGAAAUAGUCUUGCGCUCAACCAGAAAGUCUGUAAUCAUUUUAAGGGUA, the self-cleavage turned out to be 0.82.

On to GUUAACGGUCGUAGGCCAUGGAAACUAGGAGCACCAUUUCGCUGCCAGUGAAGAAAUGAACAAAGAAAAUCUGGGCCAGGCAGGCAUCAAAAGAAAUAGUCUUGCGCACAACCAGAAAGUCUGUAAUCAUUUUAAGGGUA, for which the self-cleavage was determined as 0.03.

For GUUAACGGUCUUAGGCCAUGGAAACUAGGAGCACCAUUUCGCUGCCAGUGAAGAAAUGAGCAAAGAAAAUCUGGGCCAGGCAGGCAUCAAAAGAAAUAGUCUUGCGCUCAACCAGAAAGUCUGUAAUCAUUUUAAGGGUA, the self-cleavage was found to be 1.16.

Turning to GUUAACGGUCUUAGGCCAUGGAAACUAGGGGCACCAUUUCGCUGCCAGUGAAGAAAUGAACAAAGAAAAUCUGGGCCAGGCAGGCAUCAAAAGAAAUAGUCUUGCGCUCAACCAGAAAGUCUGUAAUCAUUUUAAGGGUA, the self-cleavage was 1.23.

For GUUAACGGUCGUAGGCCAUGGAAACUAGGAGCACCAUUCCGCUGCCAGUGAAGAAAUGAACAAAGAAAAUCUGGGCCAGGCAGGCAUCAAAAGAAAUAGUCUUGCGCUCAACCAGAAAGUCUGUAAUCAUUUUAAGGGUA, the self-cleavage stood at 0.96.

Turning to GUUAACGGUCGUAGGCCAUGGAAACCAGGAGCACCAUUUCGCUGCCAGUGAAGAAAUGAACAAAGAAAAUCUGGGCCAGGCAGGCAUCAAAAGAAAUAGUCUUGCGCUCAACCAGAAAGUCUGUAAUCAUUUUAAGGGUA, the self-cleavage amounted to 1.27.

In the case of GUUAACGGUCUUAGGCCAUGGAAACUAGGAGCACCAUUUCGCUGCCAGUGAAGAAAUGAACAAAGAAAAUCUGGGCCAGGCGGGCAUCAAAAGAAAUAGUCUUGCGCUCAACCAGAAAGUCUGUAAUCAUUUUAAGGGUA, the self-cleavage was 0.63.

GUUAACGGUCUUAGGCCAUGGAAACUAGGAGCACCAUUUCGCUGCCAGUGAAGAAAUGAACAAAGAAAAUCUGGGCCCGGCAGGCAUCAAAAGAAAUAGUCUUGCGCUCAACCAGAAAGUCUGUAAUCAUUUUAAGGGUA: the self-cleavage amounted to 0.22.

As for GUUAACGGUCGUAGGCCAUGGAAACUAGGAGCACCAUUUCGCUGCCAGUGAAGAAAUGAACAAAGAAAAUCUGGGCCAGGCAGGCAUCAAAAGAAAUAGUCUUGCGCUCAACCAGAAAGUCUGUAAUCAUUUUAAGGGCA, the self-cleavage came to 2.37.

As to GUUAACGGUCUUAGGCCAUGGAAACUAGGAGCACCAUUUCGCUGCCAGUGAAGAAAUGAACAAAGAAAAUCUGGGCCAGGCAGGCGUCAAAAGAAAUAGUCUUGCGCUCAACCAGAAAGUCUGUAAUCAUUUUAAGGGUA, the self-cleavage came to 1.35.

The values above are taken from the RNAGym collection of RNA variant scans (doi:10.7554/elife.90254).
